Test results as given in publication PMC9503459, “Antifungal Activity, Structural Stability, and Immunomodulatory Effects on Human Immune Cells of Defensin from the Lentil Lens culinaris” (Membranes, 2022).
Several values for one entry are separate records, joined by “and”; a condition that tells them apart may be missing. Identical values can stand only once. No end group written: not given here.

Columns and labels:
THP-1 cells = test: Resazurin-based cytotoxicity assay, THP-1; type: cell-based, human; conditions: 0.2 to 50 μM, 24 h
Method: The cytotoxic properties of Lc-def and melittin as a control were investigated also by resazurin-based cell cytotoxicity assay. PBMCs and THP-1 cells were seeded in 96-well plates at 2 × 10^6 and 1 × 10^6 cells per well, respectively, in RPMI-1640 supplemented with 10% FBS, and kept in CO2-incubator. After 24 h serial two-fold dilutions of compounds in culture medium were then added to final concentrations from 0.2 to 50 μM. After 24 h of incubation with the peptides, resazurin (Sigma) was added at a final concentration of 0.7 mM, and the plates were incubated overnight (16 h). Fluorescent resorufin was registered using 535/595 filter at PlateReader AF2200 (Eppendorf, Hamburg, Germany). Untreated corresponding cells were used as negative controls. The cell viability was calculated as: cell viability (%) = (Fsample/Fcontrol) × 100%. The experiment was carried out twice in triplicate.

[1] = CD spectroscopy, secondary structure at different pH and temperature; type: physicochemical
Method: Circular dichroism spectra were recorded at different temperatures using a J-810 spectropolarimeter (Jasco, Hachioji, Tokyo, Japan) in a 0.1 cm path length quartz cell (Hellma GmbH and Co. KG, Mullheim, Germany) in the 190–250 nm range 0.2 using solutions of Lc-def in 10 mM phosphate buffer, pH 7.4, or 150 mM sodium chloride, pH 2.5, simulated gastric fluid, at a concentration of 30 µM. Lysolipids were added at final concentration of 1 mM.

[2] = system: human red blood cells (hRBC); test: Hemolytic assay; type: cell-based; conditions: 100 μM, 4% hRBC in PBS pH 7.2, 1.5 h, 37 °C, A405
Method: Hemolytic activity of Lc-def was studied using 96-well microplates. Fresh human red blood cells (hRBC) were washed three times with ice-cold PBS, pH 7.2. Serial two-fold dilutions of Lc-def and membrane-active peptide melittin from the venom of honeybees as positive control (final concentrations from 0.1 to 100 μM) were then added to hRBC in PBS (final concentration of 4% (v/v)). The suspension was incubated for 1.5 h at 37 °C. After, intact hRBC sedimentation aliquots of the supernatants containing released hemoglobin were transferred to 96-well microplates, and the absorbance at 405 nm was measured. hRBC in PBS or 0.1% Triton X-100 were employed as negative (control0) and positive (control100) controls, respectively. The percentage of hemolysis was calculated as: hemolysis(%) = ((Asample − Acontrol0)/(Acontrol100 − Acontrol0)) × 100%. Experiment was carried out twice in triplicate using the same blood.

[3] = system: clinical isolate of C. krusei (225/2); test: Antifungal microdilution assay, C. krusei; type: cell-based, Candida krusei; conditions: 24 h; for inhibition of the growth: C. krusei
Method: The clinical isolates of Candida albicans (v47a3), C. krusei (225/2) and C. glabrata (252/2) were collected from patients with human immunodeficiency virus (HIV) infection and provided by G.N. Gabrichevsky Research Institute for Epidemiology and Microbiology (Moscow, Russia). Strains stocks were kept at −70 ℃ in 10% nonfat milk with 10% glycerol.
Antifungal susceptibility tests were performed by the microdilution method using 96-well microplates. Yeast cells in stock were inoculated onto modified YPD (yeast extract 5 g/L, peptone 10 g/L, glucose 10 g/L) agar plates, and incubated for 24 h at 37 ℃. After replating, cells were cultured in modified YPD broth at 37 ℃ to optical density 1.0 at 540 nm. Further, yeast cells in modified YPD broth at concentration of 5 × 10^4 cells/mL were mixed with equal volumes of serial two-fold dilutions of the peptide in water which started at the highest peptide concentration of 200 µM. Final peptide concentrations in the wells were 100, 50, 25, 12.5, 6.25, 3.125, and 1.56 μM. Controls without defensin were also tested. Plates were incubated at 30 ℃ during 24 h. Yeast growth was estimated using inverted microscope as well as by measuring the optical density at 540 nm. Percentage of growth inhibition was defined as: growth inhibition (%) = ((Acontrol − Asample)/Acontrol) × 100%. All of the experiments were performed twice in triplicate. The t-test was performed to study the statistical difference (p-value) between the means of controls and samples with different peptide concentrations. The experiment with lentil Lens culinaris lipid transfer protein Lc-LTP2 was carried out for comparison.

[4] = far-UV CD, 30 µM, 10 mM phosphate buffer pH 7.4
[5] = far-UV CD, 30 µM, 150 mM sodium chloride pH 2.5, simulated gastric fluid
[6] = pH 7.4, 20 °C end (after heating and cooling)

Substance: Lc-def: defensin from lentil Lens culinaris seeds (UniProt:B3F051), recombinant, overexpressed in Escherichia coli (KTCENLSDSFKGPCIPDGNCNKHCKEKEHLLSGRCRDDFRCWCTRNC; disulfide (positions not given here); ends not checked; also: disulfide bonds present, pairing not given here; UniProt B3F051 28-74, looked up)
- cytotoxic activity (THP-1 cells): did not show any cytotoxic activity
- Random, % ([1]; +LPPC 1 mM, pH 7.4, 20 °C): 31%
- α-Helix, % ([1]; +LPPC 1 mM, pH 7.4, 20 °C): 16.4%
- β-Sheet, % ([1]; +LPPC 1 mM, pH 7.4, 20 °C): 30.3%
- β-Turn, % ([1]; +LPPC 1 mM, pH 7.4, 20 °C): 22.3%
- Random, % ([1]; +LPPC 1 mM, pH 7.4, 20 °C end): 32.8%
- α-Helix, % ([1]; +LPPC 1 mM, pH 7.4, 20 °C end): 5.8%
- β-Sheet, % ([1]; +LPPC 1 mM, pH 7.4, 20 °C end): 39.9%
- β-Turn, % ([1]; +LPPC 1 mM, pH 7.4, 20 °C end): 21.5%
- Random, % ([1]; +LPPC 1 mM, pH 7.4, 98 °C): 33.7%
- α-Helix, % ([1]; +LPPC 1 mM, pH 7.4, 98 °C): 8.1%
- β-Sheet, % ([1]; +LPPC 1 mM, pH 7.4, 98 °C): 35.7%
- β-Turn, % ([1]; +LPPC 1 mM, pH 7.4, 98 °C): 22.5%
- Random, % ([1]; +LPPG 1 mM, pH 7.4, 20 °C): 33%
- α-Helix, % ([1]; +LPPG 1 mM, pH 7.4, 20 °C): 23.6%
- β-Sheet, % ([1]; +LPPG 1 mM, pH 7.4, 20 °C): 21%
- β-Turn, % ([1]; +LPPG 1 mM, pH 7.4, 20 °C): 22.4%
- Random, % ([1]; +LPPG 1 mM, pH 7.4, 20 °C end): 32.9%
- α-Helix, % ([1]; +LPPG 1 mM, pH 7.4, 20 °C end): 21.7%
- β-Sheet, % ([1]; +LPPG 1 mM, pH 7.4, 20 °C end): 23.1%
- β-Turn, % ([1]; +LPPG 1 mM, pH 7.4, 20 °C end): 22.2%
- Random, % ([1]; +LPPG 1 mM, pH 7.4, 98 °C): 35%
- α-Helix, % ([1]; +LPPG 1 mM, pH 7.4, 98 °C): 18.5%
- β-Sheet, % ([1]; +LPPG 1 mM, pH 7.4, 98 °C): 24.1%
- β-Turn, % ([1]; +LPPG 1 mM, pH 7.4, 98 °C): 22.4%
- Random, % [1, 4]: 33.9%
- α-Helix, % [1, 4]: 15.5%
- β-Sheet, % [1, 4]: 28.5%
- β-Turn, % [1, 4]: 22.2%
- Random, % [1, 5]: 35.8%
- α-Helix, % [1, 5]: 13.9%
- β-Sheet, % [1, 5]: 25.4%
- β-Turn, % [1, 5]: 24.8%
- Random, % ([1]; pH 7.4, 20 °C (before heating)): 34%
- α-Helix, % ([1]; pH 7.4, 20 °C (before heating)): 15.9%
- β-Sheet, % ([1]; pH 7.4, 20 °C (before heating)): 27.7%
- β-Turn, % ([1]; pH 7.4, 20 °C (before heating)): 22.3%
- Random, % [1, 6]: 35.9%
- α-Helix, % [1, 6]: 9%
- β-Sheet, % [1, 6]: 32.1%
- β-Turn, % [1, 6]: 22.9%
- Random, % ([1]; pH 7.4, 98 °C): 35.3%
- α-Helix, % ([1]; pH 7.4, 98 °C): 13.3%
- β-Sheet, % ([1]; pH 7.4, 98 °C): 29.6%
- β-Turn, % ([1]; pH 7.4, 98 °C): 21.8%
- hemolysis of erythrocytes [2]: did not cause hemolysis
- IC50 ([3]; C. krusei clinical isolate, microdilution, modified YPD, 30 °C, OD540, twice in triplicate, read-out: concentration causing 50% growth inhibition): 25 to 50 µM and 25 µM
- inhibition of the growth ([3]; 50 μM peptide): ~90%
- inhibition of the growth ([3]; 100 μM peptide): < 100%
